The target in the experiment is biotin-labeled MSLN antigen (UniProt Q13421 296-580, limits assumed, biotin label (site not stated)). The experiment can be described thus: flow cytometry; CAR-T cells labeled with biotin-labeled MSLN antigen, detected with fluorescent streptavidin. The source says: The nucleic acid sequence encoding the CAR was expressed under the drive of promoter, and the lentivirus-transfected T cells were labeled with biotin-labeled MSLN antigen, and then detected with fluorescently labeled streptavidin, and determined by flow cytometry, which reflected the expression level of the CAR on the surface of T cells. The CAR positive rate of the CAR-T cells obtained in Example 3 was detected by the above method, and the FACS detection results were shown in the following table.

The source of these data is US20250269026A1 (CHENGDU KELUN PRECISION BIOTECHNOLOGY, published 2025).

biotin-labeled MSLN antigen, sequence (Q13421 other isoform, or with tags, fused parts or gaps limits assumed): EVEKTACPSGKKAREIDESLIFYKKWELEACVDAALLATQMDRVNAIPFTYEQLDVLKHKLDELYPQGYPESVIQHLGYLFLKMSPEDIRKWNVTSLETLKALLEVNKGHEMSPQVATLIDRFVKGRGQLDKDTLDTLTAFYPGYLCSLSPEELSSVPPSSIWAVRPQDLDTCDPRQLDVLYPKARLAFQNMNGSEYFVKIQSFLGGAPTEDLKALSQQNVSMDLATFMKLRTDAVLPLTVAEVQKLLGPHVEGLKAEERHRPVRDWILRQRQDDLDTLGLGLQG

B1: G16-CAR (other)
chain: QVQLVQSGAEVTKPGASVKVSCRASGYPFSNFFMNWVRQAPGQGLEWMGIINPIGGSTTYAQKFQGRVTMTRDTSTDTVYMELSSLRSDDTAVYYCARSSSHLGAFDIWGQGTMVTVSSASGGGGSGGRASGGGGSDIQLTQSPSSVSASVGDRVTITCRASQSISTWVAWYQHKPGVAPKLLIYASPTLQSGVPSRFSGSGSGTDFTLTISSLQSEDFATYYCQQAHSFPITFGQGTRLEIKRTTTPAPRPPTPAPTIASQPLSLRPEACRPAAGGAVHTRGLDFACDIYIWAPLAGTCGVLLLSLVITLYCKRGRKKLLYIFKQPFMRPVQTTQEEDGCSCRFPEEEEGGCELRVKFSRSADAPAYKQGQNQLYNELNLGRREEYDVLDKRRGRDPEMGGKPRRKNPQEGLYNELQKDKMAEAYSEIGMKGERRRGKGHDGLYQGLSTATKDTYDALHMQALPPR
notes: Chimeric antigen receptor on lentivirus-transduced human T cells; the signal peptide is left out here; also called G16 chimeric antigen receptor
B1 had a CAR positive rate of 41.5%.

B2: G5-CAR (other)
chain: QVQLVQSGGGLVQPGRSLRLSCAASGFTFDDYAMHWVRQAPGKGLEWVSGISWNSGSIGYADSVKGRFTISRDNAKNSLYLQMNSLRAEDTALYYCAKDMGSSGWSPVDYWGQGTLVTVSSASGGGGSGGRASGGGGSDIQVTQSPSSLSASVGDRVTITCRASQGINHYLAWYQQKPGKAPKLLIYGASTLQTGVSSRFSGSGSGTEFTLTISSLQPEDFATYYCQQLNGYPLGYTFGQGTKVEIKRTTTPAPRPPTPAPTIASQPLSLRPEACRPAAGGAVHTRGLDFACDIYIWAPLAGTCGVLLLSLVITLYCKRGRKKLLYIFKQPFMRPVQTTQEEDGCSCRFPEEEEGGCELRVKFSRSADAPAYKQGQNQLYNELNLGRREEYDVLDKRRGRDPEMGGKPRRKNPQEGLYNELQKDKMAEAYSEIGMKGERRRGKGHDGLYQGLSTATKDTYDALHMQALPPR
notes: Chimeric antigen receptor on lentivirus-transduced human T cells; the signal peptide is left out here; also called G5 chimeric antigen receptor
B2 came in with a CAR positive rate of 50.5%.
